Laboratory results: paper PMC10700650, “Enhancing the thermostability and activity of glycosyltransferase UGT76G1 via computational design” (Communications Chemistry, 2023)

Experiments:
[1] = target: 76_4 (designed UGT76G1 variant) (Stevia rebaudiana, UniProt Q6VAB4, L101F/S192K/R297W/V300K/S305P/G348P, form not given); conditions: 1 mM UDPG; 0-300 uM ST; ST to RebA conversion; 2 min time course
[2] = substrate: C=C1C[C@@]23CC[C@H]4[C@@](C)(CCC[C@@]4(C)C(=O)O[C@@H]4O[C@H](CO)[C@@H](O)[C@H](O)[C@H]4O)[C@@H]2CC[C@]1(O[C@@H]1O[C@H](CO)[C@@H](O)[C@H](O)[C@H]1O[C@@H]1O[C@H](CO)[C@@H](O)[C@H](O)[C@H]1O)C3; assay: purified protein; conditions: 1 mM UDPG; 0-300 uM ST; ST to RebA conversion; 2 min time course

Sequence of 76_4 (designed UGT76G1 variant) (Q6VAB4 12-458 L101F/S192K/R297W/V300K/S305P/G348P, form open): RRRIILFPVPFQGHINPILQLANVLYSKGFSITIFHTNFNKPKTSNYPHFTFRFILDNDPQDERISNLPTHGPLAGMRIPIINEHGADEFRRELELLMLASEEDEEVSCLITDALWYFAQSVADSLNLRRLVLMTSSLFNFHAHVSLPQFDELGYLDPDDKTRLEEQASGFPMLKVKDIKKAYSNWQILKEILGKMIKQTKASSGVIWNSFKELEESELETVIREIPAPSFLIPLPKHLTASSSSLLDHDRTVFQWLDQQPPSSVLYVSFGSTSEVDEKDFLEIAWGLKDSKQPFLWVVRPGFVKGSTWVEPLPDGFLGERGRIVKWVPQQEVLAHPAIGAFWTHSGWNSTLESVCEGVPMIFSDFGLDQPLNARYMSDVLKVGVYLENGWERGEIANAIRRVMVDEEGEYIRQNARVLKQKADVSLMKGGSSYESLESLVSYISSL

For `C=C1C[C@@]23CC[C@H]4[C@@](C)(CCC[C@@]4(C)C(=O)O[C@@H]4O[C@H](CO)[C@@H](O)[C@H](O)[C@H]4O)[C@@H]2CC[C@]1(O[C@@H]1O[C@H](CO)[C@@H](O)[C@H](O)[C@H]1O[C@@H]1O[C@H](CO)[C@@H](O)[C@H](O)[C@H]1O)C3` [ST, stevioside], the Km [1] was 34.5 ± 3 µM.

B1: UGT76G1 (WT) (Stevia rebaudiana) (protein)
chain: MENKTETTVRRRRRIILFPVPFQGHINPILQLANVLYSKGFSITIFHTNFNKPKTSNYPHFTFRFILDNDPQDERISNLPTHGPLAGMRIPIINEHGADELRRELELLMLASEEDEEVSCLITDALWYFAQSVADSLNLRRLVLMTSSLFNFHAHVSLPQFDELGYLDPDDKTRLEEQASGFPMLKVKDIKSAYSNWQILKEILGKMIKQTKASSGVIWNSFKELEESELETVIREIPAPSFLIPLPKHLTASSSSLLDHDRTVFQWLDQQPPSSVLYVSFGSTSEVDEKDFLEIARGLVDSKQSFLWVVRPGFVKGSTWVEPLPDGFLGERGRIVKWVPQQEVLAHGAIGAFWTHSGWNSTLESVCEGVPMIFSDFGLDQPLNARYMSDVLKVGVYLENGWERGEIANAIRRVMVDEEGEYIRQNARVLKQKADVSLMKGGSSYESLESLVSYISSL
B1 showed a Km [2] of 92.0 ± 5.3 µM and a kcat [2] of 17.3 ± 1.6 min⁻¹.
